These results are taken from patent US10363214B2, “Method for treating atrophic age related macular degeneration” (Allergan, Inc., priority 2008, dated 2019).

For data set [1] the following is noted: 1.25 to 2.5 mg aqueous bevacizumab into the vitreous cavity; animal and human studies; cited from earlier work.
The subject of a further data set is ARPE-19 cells. The data set can be described thus: ARPE-19 cell viability (MTT) assay with polysorbate 80. It counts as cell-based. On the procedure: An experiment was carried out to examine the toxicity of a polysorbate retinal penetrant enhancer to retinal pigment epithelial (“RPE”) cells. Thus, ARPE-19 cells (see Dunn K. et al., ARPE-19, a human retinal pigment epithelial cell line with differentiated properties, Exp Eye Res. 1996 Feb;62(2):155-69) were incubated in vitro in concentrations of polysorbate 80 ranging from 0% to 0.10% w/w and a cell viability assay was performed.
The protocol for this in vitro experiment was as follows: ARPE-19 cells (passage 11 to 23) were seeded the day prior to experimentation in 24 well-plates at 125.000 cells/well in DMEM:F12 medium supplemented with 10% FBS. Time course and dose response were simultaneously performed on ARPE-19 cells. Parameters of incubating solutions such as pH, osmolarity were measured for every concentration. Times of incubation were 24 h, 48 h, 72 h. One negative (non-treated) and one positive control (5 mM H2O2) were included. Non-treated condition was cell culture medium supplemented with serum. 5 mM H2O2 was prepared from 3% H2O2 stock solution (875 mM). Concentrations applied to cells were determined considering several parameters, such as • (a) commonly used concentration in formulation. • (b) limiting concentration to compound solubility. • (c) limiting concentration to applicable viscosity, osmolarity and pH values. In a first approach, the concentrations covered a wide range (Exp.1). After preliminary results, a second set of experiments (Exp.2 to 4) determined more accurately compound concentrations leading to inhibition of 50% of cell viability, based on cell viability assay and morphological aspect. […] Results from MTT assay were expressed as a percentage of cell viability calculated as follows: % cell viability=ODtest/ODcontrol×100. […] Gap concentration bringing to 50% cell viability was therefore determined. Morphological appearance was analyzed by semi-quantitative scoring ranging from 5 to 1, from normal to lethal phenotype respectively.

Another data set deals with wet AMD eye. The data set is described as follows: Monthly intravitreal injections in wet AMD eye of patient (paper case examples). The class given is in vivo, human. From the text:
A person has age-related macular degeneration and cataracts in both eyes. […] The patient can complain of blurry vision and metamorphopsia in the right eye and examination can reveal visual acuity of 20/400 right eye, 20/32 left eye. Retinal examination can show subfoveal choroidal neovascularization (CNV) (right eye wet AMD) approximately 1 disc area in size with surrounding hemorrhage and edema in the right eye. The fellow left eye can show high-risk features for developing wet AMD such as soft, amorphic appearing drusen that included the fovea but no signs of choroidal neovascularization and can be confirmed by fluorescein angiography (left eye dry AMD).
A person can wake up with blurry vision in the left eye. They can have a history of glaucoma, s/p cataract removal with IOLs (intraocular lenses), and dry AMD in both eyes and can be taking Alphagan P eye drops. The patient's ophthalmologist can examine them and they can be diagnosed with left eye wet AMD and sent immediately to a retinal specialist. The vision can be 20/25 in the right eye and 20/200 in the left eye. Retinal examination can show dry changes in the right eye macula but high risk features such as large drusen and numerous pigmentary changes in the subfoveal region. The left eye macula can show a subfoveal CNV approximately 2 disc areas in size with surrounding macular edema and intraretinal hemorrhages. Fluorescein angiography can confirm the presence of left eye CNV predominantly classic in appearance. […] Since the patient was at high risk for developing CNV in their right eye, and the vision in the left eye may not appreciably improve over the 3 month period, they can receive an intravitrea injection into the right eye of 50 ul comprising 4.8 mg of ranibizumab incorporated into PLGA microspheres, to prophylax against the development of CNV in the right eye. Polysorbate 20 PLGA microspheres with an in vitro release rate of 5 ug/day can also be placed in the formulation to enhance retinal permeability. The microspheres can be placed in a partially cross-linked hyaluronic acid (HA) at a HA concentration of 2.1%. Such a cross-linked HA can be obtained from Allergan Medical (Irvine, Calif.) under the brand names Juvederm Ultra Plus, Juvederm 30, Captique, and Voluma.

Turning to bevacizumab, the intraocular toxicity entry in data set [1] is on record as “without significant intraocular toxicity”.
As for polysorbate 80, the “polysorbate 80 concentrations associated with declining RPE cell viability” value in the data set with ARPE-19 cells (ARPE-19 cells, 24, 48 and 72 h incubation, also printed as 0.6 mg/ml, FIG. 1) is recorded as “over 0.06%”. In addition, the “polysorbate 80 concentrations associated with cell viabilities of less than 50%” value with ARPE-19 cells (ARPE-19 cells, 24, 48 and 72 h incubation, also printed as 0.9 mg/ml, FIG. 1) is listed as more than 0.09%. Further, in the data set with ARPE-19 cells (assuming a vitreous volume of 4 ml in a human eye), the “total maximum weight of polysorbate in the vitreous at one time” value is on record as not above 3.6 mg.

B1: ranibizumab (antibody, chains of the INN, looked up, V domains shown)
VH: EVQLVESGGGLVQPGGSLRLSCAASGYDFTHYGMNWVRQAPGKGLEWVGWINTYTGEPTYAADFKRRFTFSLDTSKSTAYLQMNSLRAEDTAVYYCAKYPYYYGTSHWYFDVWGQGTLVTVSS
VL: DIQLTQSPSSLSASVGDRVTITCSASQDISNYLNWYQQKPGKAPKVLIYFTSSLHSGVPSRFSGSGSGTDFTLTISSLQPEDFATYYCQQYSTVPWTFGQGTKVEIK
modifications: Fab
For the molecule B1, the “edema and hemorrhage, right wet AMD eye” value with wet AMD eye (Example 1, within 4 months) was “resolution of the edema and hemorrhage”. The “visual acuity, right wet AMD eye” value with wet AMD eye (Example 1, within 4 months, baseline 20/400) is 20/125. The “left eye visual acuity (wet AMD eye)” value with wet AMD eye (Example 3, 3 month period, baseline 20/200) is 20/100. The “retinal edema, left wet AMD eye” value in the data set on wet AMD eye (Example 3, over a 3 month period) is given as “resolution of the retinal edema”.
